From doi:10.1101/2025.09.17.674891 (bioRxiv, 2025)

Columns and labels:
[1] = target: T1, SARS-CoV-2 RBD (recombinant) (SARS-CoV-2, UniProt P0DTC2); assay: ELISA
WIV-1 RBD (recombinant) = WIV-1 RBD (recombinant) (bat sarbecovirus WIV-1, UniProt U5WI05); assay: ELISA
Rs4231 RBD (recombinant) = Rs4231 RBD (recombinant) (Bat SARS-like coronavirus, isolate …, UniProt A0A2D1PXA9); assay: ELISA
[2] = target: RacCS203 RBD (recombinant) (Bat coronavirus RacCS203); assay: ELISA
[3] = target: T1, SARS-CoV-2 RBD (recombinant); assay: flow cytometry on cells

B1: V1WT_06 IgG (antibody, V domains shown)
VH: EVQLVQSGAEVKKPGASVKVSCKASGYTFSSHGISWVRQAPGQGLEWMGWISTYNGNTNSAQNLQGRVTMTADTSTSTAYMELRSLRSDDTAVYYCARGPWGYCSGTSCYYWTPDNPAYSYHGMDVWGQGTTVTVSS
VL: not shown
Question: B1 was tested. Which “fold increase in binding of the IgG over the Fab” value [1] did it give?
Answer: 1.3 fold

B2: V1WT_06 Fab (Fab, V domains shown)
VH: B1 VH
VL: not shown
Question: Does B2 bind (WIV-1 RBD (recombinant))?
Answer: binds

B3: V1WT_41 IgG (antibody, V domains shown)
VH: QVQLQESGPGLVKPSETVSVTCTVSGGSITRSNYYWGWIRQPPGKGLEWIGSIFYNGNTNYNPSLKSRLTISVDTSKNQFSLKLSSVTAADTAVYYCARTAPYYYDRSGYYQKEEYFQRWGQGTLVTVSS
VL: EIVMTQSPSTLSASVGDRVTITCRASQSISTWLAWYQQKPGKAPNLLIYQASSLESGVPSRFSGSGSGTEFTLTISSLQPDDFATYYCQQYNNYPRTFGQGTKLEIK
Question: Does B3 bind (Rs4231 RBD (recombinant))?
Answer: binds

Question: Does B3 bind [2]?
Answer: binds

Question: Does B3 bind [1]?
Answer: binds

B4: VA14_26 IgG (antibody, V domains shown)
VH: QVQLQQWGAGLLKPSDTLSLTCGISGGPFSGYYWSWIRQPPGKGLEWLGEINHSGITTYNPSLKSRGTISVDTSKRQISLKLASVTAADTAVYYCARFAYGDYGWDYSSDMDVWGKGTTVTVSS
VL: DIQLTQSPSTLSASVGDRVTITCRASQSISTWLAWHQQIPGKAPKLLIYRASTLQSGVPSRFSGSGSGTEFTLTISSLQPDDFATYYCQQYYSVRTFGQGTKVDIK
Question: Does B4 bind [3]?
Answer: binds
